For 20 molecules, Kd results are on record in article PMC1636342.

What all share (assay): tryptophan fluorescence quenching
In data set [1] the target is T1, Bs-CspB (Bacillus subtilis, UniProt P32081 1-67).
In data set [2] the target is T1, Bs-CspB. This is another data set of the same source.
Data set [3] has as its target T1, Bs-CspB. This is another data set of the same source.
Data set [4] addresses Bs-CspB F27A (Bacillus subtilis, UniProt P32081 1-67, F27A).
Data set [5] addresses Bs-CspB R56A (Bacillus subtilis, UniProt P32081 1-67, R56A).
Data set [6] addresses Bs-CspB K7A (Bacillus subtilis, UniProt P32081 1-67, K7A).
Data set [7] deals with Bs-CspB F30A (Bacillus subtilis, UniProt P32081 1-67, F30A).
Data set [8] concerns the target Bs-CspB F15A (Bacillus subtilis, UniProt P32081 1-67, F15A).
Data set [9] concerns the target Bs-CspB F15Y (Bacillus subtilis, UniProt P32081 1-67, F15Y).
In data set [10] the target is Bs-CspB F38A (Bacillus subtilis, UniProt P32081 1-67, F38A).
In data set [11] the target is Bs-CspB G35P (Bacillus subtilis, UniProt P32081 1-67, G35P).
Data set [12] addresses Bs-CspB F17A (Bacillus subtilis, UniProt P32081 1-67, F17A).
Data set [13] has as its target Bs-CspB Q59A (Bacillus subtilis, UniProt P32081 1-67, Q59A).
Data set [14] concerns the target Bs-CspB K13Q (Bacillus subtilis, UniProt P32081 1-67, K13Q).
Data set [15] deals with Bs-CspB G54P (Bacillus subtilis, UniProt P32081 1-67, G54P).
The target in data set [16] is Bs-CspB D25A (Bacillus subtilis, UniProt P32081 1-67, D25A).
The target in data set [17] is Bs-CspB G35A (Bacillus subtilis, UniProt P32081 1-67, G35A).
The target in data set [18] is Bs-CspB P58A (Bacillus subtilis, UniProt P32081 1-67, P58A).
Data set [19] has as its target Bs-CspB G54A (Bacillus subtilis, UniProt P32081 1-67, G54A).
Data set [20] addresses Bs-CspB H29Q (Bacillus subtilis, UniProt P32081 1-67, H29Q).
Data set [21] concerns the target Bs-CspB F30W (Bacillus subtilis, UniProt P32081 1-67, F30W).
Data set [22] concerns the target T1, Bs-CspB. The source holds these as a separate data set.
Data set [23] concerns the target T1, Bs-CspB. The source holds these as a separate data set.
The target of data set [24] is T1, Bs-CspB. This is another data set of the same source.
Data set [25] deals with T1, Bs-CspB. This is another data set of the same source.

Like-named read-outs stand apart in the source and are kept apart here.

With GAGTTTTGGTCTTGAA (ssDNA) [dcb2_b], the Kd (in general, the constant that tells how readily two partners part at equilibrium) in [1] turned out to be 43 ± 2 nM. CCCCCC (ssDNA) [dC6]: the Kd in data set [2] is 12600 ± 1000 nM. With TTTTTTT (ssDNA) [dT7], the Kd was 1.8 ± 0.4 nM in data set [3]; 286 ± 7 nM in [4]; 11.8 ± 1.4 nM in [5]; 6.4 ± 0.6 nM in [6]; 208 ± 11 nM in [7]; 135 ± 4 nM in data set [8]. Further, the Kd in data set [9] is 1.4 ± 0.4 nM; in [10], 228 ± 9 nM; in data set [11], 118 ± 5 nM; in [12], 345 ± 63 nM; in [13], 2.7 ± 0.4 nM; in data set [14] it was 25 ± 3 nM. The Kd in data set [15] stood at 220 ± 9 nM; in [16], 21.4 ± 0.5 nM; in data set [17], 1.1 ± 0.3 nM; in data set [18], 1.3 ± 0.2 nM; in [19] it was 1.3 ± 0.3 nM; in data set [20], 104 ± 6 nM. Moreover, in data set [21], the Kd worked out at 1.3 ± 0.3 nM.

In data set [22], CTCCTTC (ssDNA) yielded a Kd of 12.5 ± 0.6 nM. Consider GTTTTGTAAGAGT (ssDNA) [dcb2ds_13], for which, in data set [1], binding was put at a Kd of 66 ± 21 nM.

Turning to ATTATTTTTGTTC (ssDNA) [dcb1_a], the Kd in data set [1] came to 44 ± 2 nM.

CTCTTCC (ssDNA) displayed a Kd in data set [22] of 66.2 ± 4.8 nM. On the same count and under the same terms, as for CTCTTTC (ssDNA), the figure is 3.9 ± 0.2 nM. In [23], TATTGGT (ssDNA) [Y-box7] returned a Kd of 530 ± 50 nM. CTGATTGGCCAA (ssDNA) [Y-box12] had a Kd in data set [24] of 2030 ± 390 nM. In [2], TTTTTT (ssDNA) [dT6] returned a Kd of 326 ± 20 nM. Molecule ATCCTACTGATTGGCCCAGGTGCTG (ssDNA) [Y-box25] showed a Kd in [25] of 3.92 ± 0.045 µM. On to TTATTAG (ssDNA) [dcb1], for which the Kd in [2] came out at 20 ± 3 nM. Still for that read-out and setting: as for ATTGG (ssDNA) [Y-box5], the figure is 5300 ± 1000 nM. The molecule CTTTTTC (ssDNA) registered a Kd in data set [22] of 33.7 ± 4.1 nM. With TTTAAGAAGAAAGTTTT (ssDNA) [dcb2_a], the affinity in data set [1], expressed as Kd, was 460 ± 34 nM. In data set [22], CTCTCTC (ssDNA) displayed a Kd of 10.8 ± 0.9 nM. Molecule GGATAAGAACGAG (ssDNA) [dcb1_br] yielded a Kd in data set [1] of 1090 ± 110 nM.

In the case of GAGCAAGAATAGG (ssDNA) [dcb1_b], the Kd in data set [1] is 1160 ± 90 nM. In turn, AAGTTCTGGTTTTGAG (ssDNA) [dcb2_br] displayed a dissociation constant (Kd) in data set [1] of 30 ± 2 nM.
